Data published in publication PMC9907207 (Nature Communications, 2023).

B1: GAR14 (antibody, V domains shown)
VH: EVQLVESGGGLVQPGGSLRLSCAASGFTFSRYDMHWVRQTTGKGLEWVSAIGTAGDTYYPDSVKGRFTISRENAKNSLHLQMNSLRVGDTAVYFCARAVDCSDISCYSNWYFDLWGRGTLVTVSS
VL: DIQLTQSPSSLSASVGDRVTITCRASQTISSFLNWYQQKPGKAPHLLIYAASSLQSGVPSRFSGSGSGTDFTLTITNLQPEDFATYYCQQSYSTPPITFGQGTRLEIK
B2: GAR20 (antibody, V domains shown)
VH: QVQLQQWGAGLLKPSETLSLTCAVYGGSFSDFYWSWIRQPPGKGLEWIGQIDHSGSPNYNPSLKSRVTMSVDTSKNHFSLRLTSMTAADTAVYYCAKGPRYGSGSFDPLGQGTLVTVSS
VL: SYELTQPPSVSVAPGQTARITCGGDNIGSKTVHWYQQKPGQAPVLVVYDDGDRPSGIPERFSGSNPGNTATLTISRVEAGDEADYYCQVWDSSSDSVVFGGGTELTVL
B3: GAR11 (antibody, V domains shown)
VH: EVQLVQSGTEVKKPGSSVKVSCEASGGTFSKYAITWVRQAPGQGLEWMGGIIPIFGTANYAQKFQDRVKITADEITSIAYMELNSLSSEDTAVYYCARDNRGRGFGEILSYYYGMDVWGQGTTVTVSS
VL: SALTQPASVSGSPGQSITISCTGTSSDVGGYNYVSWYQQHPGKAPKLMIYDVATRPSGVSDRFSGSKSGNTASLTISGLQAEDEADYYCSSYTSSNTLAFGGGTKLTVL
B4: GAR01 (antibody, V domains shown)
VH: QVQLVQSEGGVVQPGRSLRLSCTASGFTFSSYGMHWVRQAPGKGLEWVALISYDGSDKYYADSVKGRFTISRDNSKNTLYLQMNSLRPEDTAVFYCAKGGWYGSSSGFDYWGQGTLVTVSS
VL: DIQMTQSPSSLSASVGDRVTITCQASQDISNYLNWYQQKPGKAPKLLIYDASNLETGVPSRFSGSGSGTDFIFTISSLQPEDIATYYCQQYHDVPRTFGQGTKVEIK
B5: GAR13 (antibody, V domains shown)
VH: EVQLVESGGGLVQPGGSLRLSCAASGFTFSNYDMHWVRQVTGKGLEWVSLIGTSGDTYYPGSVKGRFTISRDNAKNSLYLQMNSLRADDTAVYYCVRAAFDDHNIYSWFDSWGQGTLVTVSS
VL: DIQMTQSPSSLSASVGDRVTITCRASQSIGRYLNWYQQKPGKAPKLLIYTASSLQSGVPSRFSGSGSGTEFTLTISSLQPEDFATYYCQQSYNIPPLTFGGGTKVEIK
B6: GAR16 (antibody, V domains shown)
VH: EVQLVESGGGVVQPGGSLRLSCAASGFTFSNYDMHWVRQATGKGLEWVSAIGTAGDTYYPDSVKGRFTISRDNAKNSLYLQMNSLRAEDTAVYYCTRVVHSSDWTSWSAGIHNWFDSWGQGTLVTVSS
VL: DIVMTQSPSSLSASVGDRVSITCRTSQSIRTYLNWYQQKPGKAPKLLIYASSSLQSGVPSRFSGSGSGTDFTLSISSLQPEDFATYYCQQSYSMPPWTFGQGTKLEIK
B7: GAR04 (antibody, V domains shown)
VH: QVQLVQSGAEVKKSGASVKVSCKASGYTFTGYHMHWVRQAPGQGLEWMGWINPKSDGTNSAQKFQGRVTMTRDTSISTAYMELSRLRSDDTAVYYCARLAVREYYDNSGFYRKTTDAFDLWGQGTMVTVSS
VL: DIVMTQSPDSLAVSLGERATINCKSSQSVLYNSNNKNYLAWYQQKPGQPPKLLIYWASTRESGVPDRFSGSGSGTDFTLTINSLQAEDVAVYYCQQYSITTPPITFGQGTRLEIK
B8: GAR18 (antibody, V domains shown)
VH: QVQLQESGPGLVKPSETLSLTCTVSGGSISDYYWSWIRQPPGKGLEWIGYIHGSGGTNYNPSLKSRVTILVDTSKNELSLKLSSVTTADTAVYYCARDDMISGLGYYGMDVWGQGTTVTVSS
VL: EIVMTQSPATLSLSPGERVTLSCRASQSVSSYLAWYQQKPGQAPRLLIYDASNRATGIPARFSGSGSGTDFTLTISSLEPEDFAVYYCQQRSNWPSTFGPGTKVDIK
B9: GAR17 (antibody, V domains shown)
VH: EVQLVESGGGLGQPGGSLRLSCAASGFNFSNYAMSWVRQAPGKGLEWISTVGGSGDSTYYADSVKGRFTISIDNSKNRLYLQMNSLRSEDTAVYYCAKELAVMPPYFYYYAMDVWGQGTTVTVSS
VL: QPVLTQPPSASGTPGQRVTISCSGTTSNVGSTYVYWYQQLPGTAPKLLIYRYNQRPSGVPDRFSGSKSGTSASLVISGLRSDDEAVYYCATWDDSRHVVFGGGTKLTVL
B10: GAR06 (antibody, V domains shown)
VH: QVTLRESGPALVKPTQTLTLTCTFSGFSVSSAGMCVSWIRQPPGKALEWLARIDWDDDKYYSTSLRTRLTISTDTSKNQVVLTMTNMDPVDTATYYCARTTMTTSYYFDSWGQGTLVTVSS
VL: QSALTQPRSVSGSPGQSVTISCTGTSSDVGGYDYVSWYQHHPGKAPKVVLYDVTKRPSGVPDRFSGSKSGNTASLTISGLQAEDEADYYCCSYAGSYAGVFGTGTKVTVL
B11: GAR15 (antibody, V domains shown)
VH: EVQLVESGGGLVQPGGSLRLSCAASGLTVSSNYMSWVRQAPGKGLEWVSVIYSGGSTFYADSVKGRFTISRHNSKNTLYLQMNSLRGDDTAVYYCARDLIYYGMDVWGQGTTVTVSS
VL: DIVMTQSPSSLSASVGDRVTITCRASQGISSSLAWYQQNPGKPPKLLIYAASTLQSGVPSRFSGSGSGTDFTLTISSLQPEDFATYYCQQLNSDLYTFGQGTKVEIK
B12: GAR09 (antibody, V domains shown)
VH: EVQLVESGGGLVQPGGSLRLSCAASGFTVSYNYMSWVRQAPGKGLEWVSLIYSGGSTYYADSVKGRFTISRDSSKNTLYLQMNSLRVEDTAVYYCAREVPSRSGWSGGQGTLVTVSS
VL: DIVMTQSPSSLSASVGDRVTITCQASQDMNKYLNWYQQKPGKAPKLLIYDASNLETGVPSRFSGSGSGTNFTFTISSLQPEDIATYYCQQYDNLPPVFGPGTKVEIK
B13: GAR07 (antibody, V domains shown)
VH: EVQLVQSGGGLVQPGGSLRLSCAASEFIVSSNYMSWVRQAPGKGLEWVSVIYSGGSTFYADSVKGRFTISRDNSKNTLHLQMNSLRVEDTAVYYCARDRGDRFDYWGQGTLVTVSS
VL: not shown
B14: GAR12, human IgG1 monoclonal antibody (antibody, V domains shown)
VH: EVQLVQSGGGLVQPGGSLRLSCAASGFTFSSYAMSWVRQAPGKGLEWVLSISGSGGSTYYADSVKGRFTISIDNSKKTVYLQMNSLRAEDTAVYYCAKSGEQQLVQAEYFHHWGQGTLVTVSS
VL: DIQMTQSPSTLSASVGDRVTITCRASQSIGRWLAWYQQKPGKAPKLLIYDASSLESGVPSRFSGSGFGTEFTLTISSLQPDDFATYYCQQCDSLLTFGGGTKLEIK
notes: source: ExpiCHO, purified (Protein G resin)
B15: GAR05, human IgG1 monoclonal antibody (antibody, V domains shown)
VH: EVQLVQSGGDLVQPGGSLRLSCAVSGFTVSRNYMTWVRQAPGRGLEWVSLIYPGGSAFYADSVKGRFTISRDNSKNTLYLQMNSLRVEDTAVYYCARDPVSTGHYHDSDYWGQGTLVTVSS
VL: DIQMTQSPSALSASVGDRVTITCQASQDINKFLNWYQQKPGKAPKLLIYDASNLETGVPSRFSGGGSGTDFTFTISSLQPEDIATYYCHQYDNLPRTFGQGTKVELK
notes: as for B14
B16: S2H97, class 5 monoclonal antibody (antibody, V domains shown)
VH: QVRLVQSGAEVKKSGESLKISCKGSGYSFTSYWIGWVRQMPGKGLEWMGIIYPGDSDTRYSPSFQGQVTISADKSISTVYLQWSSLKASDTAMYYCARQWSHYTYDYYYWGQGTLVTISS
VL: QSVLTQPASVSGSPGQSITISCTGISSDVGGYNSVSWYQQHPGKAPKLMIYDVTNRPSGVSNRFSGSKSGNTASLTISGLQAEDEADYYCSSYTSSSTPPYVFGTGTKVSVL
B17: GAR12 Fab (Fab, V domains shown)
VH: B14 VH
VL: B14 VL
notes: also called GAR12 Fab fragment; source: ExpiCHO, purified (Talon resin, S200 SEC)
B18: GAR03 Fab (Fab, V domains shown)
VH: QVQLVQSGAEVKKPGASVKVSCKASGYTFSSYDINWVRQAPGQGLEWMGWMSPNSGNTGYAQKFQGRVTMTRSTSMSTAYMELSSLRSEDTAVYFCARMSSSLTNYLDYWGQGTLVTVSS
VL: SYVLTQPPSVAVAPGQTARIRCGENDIGSKNVHWYQQKSGQAPVLVVYDDSDRPSGIPERFSGSNSGNTATLTISRVEAGDEADYYCQVWDSTGDHPDVVFGGGTKLTVL
notes: also called GAR03 antibody Fab; source: ExpiCHO, purified (Talon resin, S200 SEC)
B19: 10G4 Fab (Fab, V domains shown)
VH: QVQLVESGGGVVQPGRSLRLSCAASGFTFSSYGMHWVRQAPGKGLEWVAVIWYDGSDKYYADSVKGRFTISRDNSKNTLYLQINSLRAEDTAMYYCAREATAGFDYWGQGNLVTVSS
VL: NIQMTQSPSAMSASVGDRVTITCRARQDISSYLAWFQQKPGKVPKHLIYAASTLLSGVPSRFSGSGSGTEFTLTISSLQPEDFATYYCLQHNSYPYTFGQGTKLEIN
notes: also called additional antibody Fab (10G4)

These binders were tested against SARS-CoV-1 RBD (SARS-CoV (SARS-CoV-1), isolate not …, UniProt P59594) (assay: not given). Conditions: not given.

Binder | binding result
B1 | binds
B2 | binds
B3 | binds
B4 | binds
B5 | binds
B6 | binds

Each binder was assayed against T1, SARS-CoV-2 RBD (residues 319-541), ancestral strain (SARS-CoV-2, UniProt P0DTC2) (assay: not given). Conditions: not given.

Binder | binding result
B7 | binds
B1 | binds
B8 | binds
B9 | binds
B10 | binds
B11 | binds
B2 | binds
B3 | binds
B12 | binds
B4 | binds
B13 | binds
B5 | binds
B6 | binds

What follows are binders tested against bat RaTG12-CoV RBD (Bat coronavirus RaTG13 (printed as …, UniProt A0ABF7PLN6)) (assay: not given). Conditions: not given.

Binder | binding result
B1 | binds
B2 | binds
B3 | binds
B4 | binds
B5 | binds
B6 | binds

Each binder was assayed against T1, SARS-CoV-2 RBD (residues 319-541), … (assay: BLI). Conditions: both partners purified.

Binder | binding result | Kd [nM]
B14 | binds | 
B15 |  | 0.54
B16 | binds | 

The binders below were run against T2, C-terminally His-tagged SARS-CoV-2 RBD (residues 333-528) (SARS-CoV-2, UniProt P0DTC2) (assay: crystal structure). Conditions: both partners purified.
T2 construct: source: expressed and purified as for the other RBDs (Expi293, Talon resin)

Binder | binding result
B17 | binds
B18 | binds
B19 | binds
